{"source": "patent US12201679B2", "about": "“Epitope-targeted peptide immunostimulants” (priority 2019, dated 2025)", "key": {"[1]": {"target": "full-length recombinant MrkA protein (Klebsiella pneumoniae, UniProt P12267)", "sequence (P12267 23-202)": "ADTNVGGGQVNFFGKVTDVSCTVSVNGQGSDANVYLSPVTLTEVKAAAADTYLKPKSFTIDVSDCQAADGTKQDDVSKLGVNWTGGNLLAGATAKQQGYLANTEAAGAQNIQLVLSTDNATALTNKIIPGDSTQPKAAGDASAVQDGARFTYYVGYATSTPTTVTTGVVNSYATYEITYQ", "assay_type": "binding", "settings": "ratio of ELISA signals, FIG. 4B", "text": "HPraGly is present before X1 in each peptide and Az4 follows X5 in each peptide."}, "[2]": {"assay": "Isocratic point, elution from C18 prep-scale column", "assay_type": "physicochemical", "protocol": "PCC compounds were purified on a Waters Autopurification system, which isolated compounds based on MS peaks corresponding to protonated [M+1H]^+ and [M+2H]^2+, and/or sodium adducts [M+Na]^+ and [M+2Na]^2+. The isocratic points of PCCs were determined based on the elution of the compound from a C18 prep-scale column. Synthetic epitopes were either purified on the Waters Autopurification System, or by semi-preparative HPLC and then using matrix-assisted laser desorption/ionization mass spectroscopy to identify fractions with the desired m/z ratio. The resulting peptides were lyophilized, the yield determined by mass difference or UV-visible absorbance, and resuspended at a concentration of up to 10 mM peptide in DMSO. Peptides were stored at −80° C. before thawing for each use."}, "[3]": {"tested_on": "K. pneumoniae cells (strain BAA 1705)", "assay": "Gentamicin protection assay: phagocytosis and opsonophagocytic killing (OPK) by macrophages", "assay_type": "cell-based, Klebsiella pneumoniae", "settings": "1 h, FIG. 7B", "protocol": "It also tested whether DNP-conjugated EPIs could promote the opsonophagocytic killing (OPK) of K. pneumoniae by macrophages. This was tested by using an OPK assay. Briefly, K. pneumoniae cells were treated with EPI and then anti-DNP antibody before being exposed to macrophages for either 6 or 24 hours. During this incubation period, macrophages that recognize K. pneumoniae cells will phagocytose them, and phagocytosed bacteria will remain viable for up to 6 hours, but within 24 hours are rendered inviable by OPK. Thus, macrophages were isolated after 6 and 24 hours of incubation with K. pneumoniae, lysed them, and plated and grew the lysate, which yielded bacterial colonies that reflect the phagocytosis (at 6 hrs) or OPK (at 24 hrs) of bacteria.\nGiven that cy(LLFFF)-DNP (SEQ ID NO:5) recruits antibodies to K. pneumoniae surfaces, it was expected that K. pneumoniae opsonized in this manner would be more susceptible to phagocytosis by macrophages. AR-PCC-driven phagocytosis and OPK were quantified by a gentamicin protection assay, as depicted in FIG. 7A. For this assay, K. pneumoniae cells (strain BAA 1705) were treated with cy(LLFFF)-DNP (SEQ ID NO:5), opsonized by anti-DNP antibodies, and then incubated with murine bone-marrow-derived macrophages (BMDMs). BMDMs were subsequently exposed to a solution containing gentamicin, to which K. pneumoniae strain BAA 1705 is susceptible, to kill any extracellular bacteria. Phagocytosed bacteria remain viable inside BMDMs for at least 1 h, yet are rendered inviable after 24 h by OPK (FIG. 13). Macrophages harvested at 1 h and 24 h were lysed and plated to generate bacterial colonies, which were enumerated to quantify phagocytosis and OPK.\nKlebsiella pneumoniae BAA1705 was treated with DNP-PCCs followed by incubation with anti-DNP antibody, as described above in the “Cell-Based ELISAs” section. These opsonized bacteria were then used to infect BMDMs at a multiplicity of infection of 50 for 0.5 h at 37° C. Bacteria were then washed by using RPMI 1640 Media and BMDMs were left in cell culture medium containing gentamicin (100 μg/ml). After 1 h and 24 h BMDMs were washed to remove gentamicin and intracellular bacteria were harvested by lysing BMDMs in RPMI media containing 0.2% Triton X 100. Bacterial CFUs were enumerated by plating onto LB agar. Bacterial counts at 1 h indicated the degree of opsonization while those at 24 h served as a measure of microbicidal activity of macrophages. For these measurements, anti-MrkA antibody and K. pneumoniae antiserum were used at dilutions of 5 μg/mL each."}, "[4]": {"tested_on": "K. pneumoniae (strains BAA 1705 & 2146)", "assay": "Whole-cell ELISA, biotinylated PCC, multidrug-resistant K. pneumoniae", "assay_type": "cell-based, Klebsiella pneumoniae", "settings": "whole-cell ELISA, FIG. 5C", "protocol": "Detection of the binding of biotinylated PCCs to bacterial surface was performed as follows. 10^8 bacteria from a culture grown overnight were used for each test. […] After washing thrice with PBS to remove unbound PCCs, bacteria were incubated with Streptavidin-HRP (1:1000) for 1 h at 37° C. Bacteria were washed thoroughly and the TMB reagent was added until visible coloration was observed. The reaction was quenched using 2N H2SO4 and absorbance was measured at 450 nm."}, "[5]": {"target": "MrkA protein (Klebsiella pneumoniae, UniProt P12267)", "sequence (P12267 23-202)": "as above", "assay": "Sandwich ELISA, MrkA binding in mouse sera", "settings": "MrkA 250 nM in 10 and 100% mouse sera", "text": "By comparison, the addition of polyarginine tags reduced the IP to near 40% without substantial loss in MrkA avidity (three leftmost data points in FIG. 4B)."}}, "note": "Entries after “also recorded” stand apart in the source; their conditions may differ. Ends that are not written are not given here.", "data": [{"substance": "cy(LLFFF)+R6 (LLFFFRRRRRR; also: cyclic over residues 1-5, ring closure not given here)", "values": [{"measurement": "stronger affinity to MrkA over cy(LLFFF)", "setting": "[1]", "value": 22, "unit": "%"}, {"measurement": "isocratic point (IP)", "setting": "[2]", "value": "~40", "unit": "%"}, {"measurement": "reduction (improvement) in IP versus cy(LLFFF)", "setting": "[2]", "value": "~35", "unit": "%"}, {"measurement": "phagocytosis at 1 h, DNP-tagged AR-PCC plus anti-DNP (words)", "setting": "[3]", "value": "also enhanced phagocytosis"}, {"measurement": "phagocytosis at 1 h, DNP-tagged AR-PCC plus anti-DNP (words)", "setting": "[3]; listed as cy(LLFFF)-R6", "value": "comparable to that of cy(LLFFF)-DNP"}, {"measurement": "binding selectivity towards MrkA-expressing K. pneumoniae cells versus E. coli and S. typhimurium", "setting": "[4]", "value": "similarly high selectivity"}, {"measurement": "binding to MrkA protein in mouse sera", "setting": "[5]", "value": "binds MrkA protein in the context of sera; also recorded: bound MrkA protein in solutions of 10 and 100% mouse sera"}]}]}
